For series [1], the system named is T1, C[C@H](NC(=O)[C@H](C)NC(=O)[C@@H](NC(=O)[C@@H](NC(=O)[C@H](CCC(=O)O)NC(=O)[C@@H]1CCCN1C(=O)[C@@H]1CCCN1C(=O)[C@H](C)NC(=O)[C@H](CO)NC(=O)[C@H](CO)NC(=O)[C@H](CO)NC(=O)[C@@H]1CCCN1C(=O)[C@@H]1CCCN1C(=O)[C@H](C)NC(=O)[C@@H]1CCCN1C(=O)[C@@H](NC(=O)[C@@H](NC(=O)[C@H](C)NC(=O)[C@H](CO)NC(=O)[C@@H]1CCCN1C(=O)[C@@H](NC(=O)[C@@H]1CCCN1C(=O)[C@@H]1CCCN1C(=O)[C@@H](N)CS)[C@@H](C)O)[C@@H](C)O)[C@@H](C)O)[C@@H](C)O)[C@@H](C)O)C(=O)O.
T1 construct: Control constructs pAcGP67-GalNAc-T1-sol, pAcGP67-GalNAc-T2-sol, pAcGP67-GalNAc-T3-sol, and pAcGP67-O^2-sol were prepared as previously described; made in house; host or cells: insect cells (baculovirus, pAcGP67)
The series is described as follows: GalNAc-transferase assay with purified recombinant GalNAc-T2. Type of series: biochemical, human. Conditions: other: acceptor substrate; pH 7.5. As to the method: The following examples are provided to illustrate certain preferred embodiments of the invention, and should be considered as illustration and not as limitation. In the examples, GalNAc-transferase assays were performed in 50 μl total reaction mixtures containing 25 mM cacodylate (pH 7.5), 10 mM MnCl2, 0.1-0.25% Triton X-100, 150-200 μM UDP-[^14C]-GalNAc (4,000 cpm/nmole) (Amersham) and 0.06-1 mM acceptor peptides. Peptides were either synthesized or obtained from Carlbiotech (Copenhagen), or Neosystems (Strasbourg), and quality was ascertained by amino acid analysis and mass spectrometry. […] Products were quantified by scintillation counting after chromatography on Dowex-1, octadecyl silica cartridges (Bakerbond), or HPLC (PC3.2/3 or mRPC C2/C18 SC2.1/10 Pharmacia, Smart System). […]
Activities measured with the mucin derived substrates, Muc7, EA2, and Muc2 (see Table I for structures and SEQ ID NOs:19, 25 and 18, respectively), were only 2-7 fold over background values. […] GalNAc-T4 was expressed in High Five cells and purified to near homogeneity, however, very low endogenous activity was detected with some substrates in the same fractions when medium from cells infected with irrelevant expression constructs were used in the same purification strategy. […]

In series [2] the test system is T2, C[C@H](NC(=O)[C@H](C)NC(=O)[C@@H](NC(=O)[C@@H](NC(=O)[C@H](CCC(=O)O)NC(=O)[C@@H]1CCCN1C(=O)[C@@H]1CCCN1C(=O)[C@H](C)NC(=O)[C@H](CO)NC(=O)[C@H](CO)NC(=O)[C@H](CO)NC(=O)[C@@H]1CCCN1C(=O)[C@@H]1CCCN1C(=O)[C@H](C)NC(=O)[C@@H]1CCCN1C(=O)[C@@H](NC(=O)[C@@H](NC(=O)[C@H](C)NC(=O)[C@H](CO)NC(=O)[C@@H]1CCCN1C(=O)[C@@H](NC(=O)[C@@H]1CCCN1C(=O)[C@@H]1CCCN1C(=O)[C@@H](N)CS)[C@@H](C)O)[C@@H](C)O)[C@@H](C)O)[C@@H](C)O)[C@@H](C)O)C(=O)O.
T2 construct: made in house; host or cells: High Five insect cells (baculovirus, pAcGP67 vector)
The series is described as follows: GalNAc-transferase assay with purified recombinant GalNAc-T4. Format: biochemical, human. The following applies: other: acceptor substrate; pH 7.5.
Procedure: In the examples, GalNAc-transferase assays were performed in 50 μl total reaction mixtures containing 25 mM cacodylate (pH 7.5), 10 mM MnCl2, 0.1-0.25% Triton X-100, 150-200 μM UDP-[^14C]-GalNAc (4,000 cpm/nmole) (Amersham) and 0.06-1 mM acceptor peptides. […] Products were quantified by scintillation counting after chromatography on Dowex-1, octadecyl silica cartridges (Bakerbond), or HPLC (PC3.2/3 or mRPC C2/C18 SC2.1/10 Pharmacia, Smart System).

For orientation: Km means the concentration of substrate that gives half-maximal velocity.

Chain of GalNAc-T2 (Homo sapiens) (chain, as listed by the source): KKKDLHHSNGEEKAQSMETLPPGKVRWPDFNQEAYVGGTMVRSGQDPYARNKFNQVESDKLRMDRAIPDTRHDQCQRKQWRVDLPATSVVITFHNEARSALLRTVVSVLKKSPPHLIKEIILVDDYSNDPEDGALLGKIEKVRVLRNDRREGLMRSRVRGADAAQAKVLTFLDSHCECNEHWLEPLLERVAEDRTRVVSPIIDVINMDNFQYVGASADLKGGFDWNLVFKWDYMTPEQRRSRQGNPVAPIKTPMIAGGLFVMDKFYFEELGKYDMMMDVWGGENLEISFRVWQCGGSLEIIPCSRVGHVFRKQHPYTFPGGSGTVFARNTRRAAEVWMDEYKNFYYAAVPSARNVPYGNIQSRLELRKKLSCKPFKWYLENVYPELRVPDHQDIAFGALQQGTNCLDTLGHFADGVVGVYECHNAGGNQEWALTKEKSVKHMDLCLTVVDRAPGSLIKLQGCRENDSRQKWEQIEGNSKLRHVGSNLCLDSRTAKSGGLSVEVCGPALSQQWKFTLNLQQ
Chain of GalNAc-T4 (Homo sapiens) (chain, as listed by the source): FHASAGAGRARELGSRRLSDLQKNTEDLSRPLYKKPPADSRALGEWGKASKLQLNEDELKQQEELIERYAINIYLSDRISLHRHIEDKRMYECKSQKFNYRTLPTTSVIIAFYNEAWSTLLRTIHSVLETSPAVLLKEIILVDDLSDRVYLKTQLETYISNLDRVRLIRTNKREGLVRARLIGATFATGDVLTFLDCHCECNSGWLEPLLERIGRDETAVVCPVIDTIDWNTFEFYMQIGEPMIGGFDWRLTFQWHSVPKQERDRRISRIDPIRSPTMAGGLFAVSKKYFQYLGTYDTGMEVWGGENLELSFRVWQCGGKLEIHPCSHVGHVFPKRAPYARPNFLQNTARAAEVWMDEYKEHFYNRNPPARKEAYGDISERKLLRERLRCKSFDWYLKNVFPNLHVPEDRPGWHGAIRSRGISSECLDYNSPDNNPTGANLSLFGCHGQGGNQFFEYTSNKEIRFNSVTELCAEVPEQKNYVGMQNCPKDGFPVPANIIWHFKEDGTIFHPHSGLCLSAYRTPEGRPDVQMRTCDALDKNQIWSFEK

GalNAc-T2 (Homo sapiens): in series [1], the Km is 15 µM and the Vmax amounted to 0.64 nmol/min/µg.
For GalNAc-T4 (Homo sapiens), in series [2], the Km worked out at 480 µM and the Vmax turned out to be 0.25 nmol/min/µg.

Source of the values: patent US6465220B1, “Glycosylation using GalNac-T4 transferase” (GlycoZym ApS, priority 1998, dated 2002).
